Assay results from paper PMC5667929, “Combinatorial action of Grainyhead, Extradenticle and Notch in regulating Hox mediated apoptosis in Drosophila larval CNS” (PLoS Genetics, 2017).

Biological target: T1, His tagged Grh (551-1333 aa) (Drosophila, UniProt P13002 551-1333)
T1 construct: Grainyhead (Grh), Drosophila transcription factor, residues 551-1333; also called His-Grh; Grainyhead; source: bacterial culture (induced two hours with 0.5mM IPTG at 18°C), in lysate for the pull-down
Assay: native gel or EMSA; proteins (100 or 200 ng) mixed with DNA oligos of motifs from the 1Kb F3B3 enhancer; complexes seen on DNA only; 20 ul, room temperature, 30 minutes; binding buffer with Tris pH 7.5, KCl, MgCl2, EDTA, DTT, BSA, glycerol, polydIdC
Settings: both partners purified

T1 sequence (P13002 551-1333): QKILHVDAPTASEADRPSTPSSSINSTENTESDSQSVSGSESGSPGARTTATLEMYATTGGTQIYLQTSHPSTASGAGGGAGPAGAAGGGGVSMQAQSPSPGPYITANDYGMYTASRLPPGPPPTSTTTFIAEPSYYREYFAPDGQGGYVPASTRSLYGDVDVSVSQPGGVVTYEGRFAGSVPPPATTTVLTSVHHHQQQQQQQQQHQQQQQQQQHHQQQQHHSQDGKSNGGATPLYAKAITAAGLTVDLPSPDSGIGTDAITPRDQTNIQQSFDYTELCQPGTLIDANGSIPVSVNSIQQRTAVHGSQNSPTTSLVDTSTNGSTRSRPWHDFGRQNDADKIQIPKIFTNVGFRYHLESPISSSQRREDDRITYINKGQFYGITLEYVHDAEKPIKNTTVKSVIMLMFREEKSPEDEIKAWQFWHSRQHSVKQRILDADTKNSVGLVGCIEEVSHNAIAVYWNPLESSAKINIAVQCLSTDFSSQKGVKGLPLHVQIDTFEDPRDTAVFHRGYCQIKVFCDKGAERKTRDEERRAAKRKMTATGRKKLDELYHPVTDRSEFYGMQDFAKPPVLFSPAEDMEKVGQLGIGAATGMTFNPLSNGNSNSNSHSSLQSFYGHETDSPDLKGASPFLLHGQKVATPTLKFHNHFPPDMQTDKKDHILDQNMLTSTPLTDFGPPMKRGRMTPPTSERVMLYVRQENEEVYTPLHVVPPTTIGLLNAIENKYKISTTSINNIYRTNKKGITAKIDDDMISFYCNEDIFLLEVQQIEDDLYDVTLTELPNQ

binding result: binds
B1: 6X His-tagged AbdA (residues 261-590) (domain or fragment)
chain: not shown
notes: Abdominal-A (AbdA), Drosophila Hox protein, residues 261-590; also called Hox
